{"source": "patent US20140274782A1", "about": "“AFFINITY REAGENTS AND METHODS FOR DETECTION, PURIFICATION, AND PROTEOMIC ANALYSIS OF METHYLATED PROTEINS” (The Board of Trustees of the Leland Stanford Junior …, priority 2013, published 2014)", "assay_in_all_cases": "ProtoArray methylated with G9a SET domain", "key": {"[1]": {"target": "ARL6IP1, G9a-methylated (human) (UniProt Q15041)"}, "[2]": {"target": "BHMT, G9a-methylated (human) (UniProt Q93088)", "sequence (Q93088 whole entry)": "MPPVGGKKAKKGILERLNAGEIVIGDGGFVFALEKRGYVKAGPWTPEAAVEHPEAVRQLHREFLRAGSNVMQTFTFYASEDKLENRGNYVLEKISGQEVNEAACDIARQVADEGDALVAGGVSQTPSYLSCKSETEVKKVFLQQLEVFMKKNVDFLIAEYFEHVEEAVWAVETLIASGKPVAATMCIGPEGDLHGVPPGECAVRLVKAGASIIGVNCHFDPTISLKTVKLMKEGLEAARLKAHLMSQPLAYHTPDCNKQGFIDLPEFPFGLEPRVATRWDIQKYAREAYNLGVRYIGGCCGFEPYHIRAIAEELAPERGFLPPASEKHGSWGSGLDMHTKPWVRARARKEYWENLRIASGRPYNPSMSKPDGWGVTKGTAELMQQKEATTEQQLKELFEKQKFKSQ"}, "[3]": {"target": "BLCAP, G9a-methylated (human) (UniProt P62952)"}, "[4]": {"target": "C10orf83, G9a-methylated (human) (UniProt Q8NDC4)"}, "[5]": {"target": "C11orf73, G9a-methylated (human) (UniProt Q53FT3)"}, "[6]": {"target": "C12orf23, G9a-methylated (human) (UniProt Q8WUH6)"}, "[7]": {"target": "C12orf60, G9a-methylated (human) (UniProt Q5U649)", "sequence (Q5U649 whole entry)": "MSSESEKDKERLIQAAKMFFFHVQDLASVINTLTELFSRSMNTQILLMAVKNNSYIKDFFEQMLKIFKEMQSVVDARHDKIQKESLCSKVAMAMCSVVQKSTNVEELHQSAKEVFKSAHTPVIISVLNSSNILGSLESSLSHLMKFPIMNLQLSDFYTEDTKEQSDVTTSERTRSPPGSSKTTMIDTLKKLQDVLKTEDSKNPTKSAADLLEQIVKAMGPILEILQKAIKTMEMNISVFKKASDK"}, "[8]": {"target": "C12orf62, G9a-methylated (human) (UniProt Q96I36)"}, "[9]": {"target": "C2orf43, G9a-methylated (human) (UniProt Q9H6V9)"}, "[10]": {"target": "CA13, G9a-methylated (human) (UniProt Q8N1Q1)"}, "[11]": {"target": "CDC2, G9a-methylated (human) (UniProt P06493)", "sequence (P06493 whole entry)": "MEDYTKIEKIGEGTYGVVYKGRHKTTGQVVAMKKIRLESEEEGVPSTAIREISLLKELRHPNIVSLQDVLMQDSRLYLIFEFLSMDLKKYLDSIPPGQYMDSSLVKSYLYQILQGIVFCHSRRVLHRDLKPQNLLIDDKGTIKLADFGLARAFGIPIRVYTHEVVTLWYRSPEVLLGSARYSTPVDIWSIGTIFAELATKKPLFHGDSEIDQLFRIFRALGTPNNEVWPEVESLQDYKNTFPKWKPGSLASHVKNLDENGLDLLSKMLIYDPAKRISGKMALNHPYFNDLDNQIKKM"}, "[12]": {"target": "CDK10, G9a-methylated (human) (UniProt Q15131)"}, "[13]": {"target": "CDK5RAP3, G9a-methylated (human) (UniProt Q96JB5)"}, "[14]": {"target": "CDKL5, G9a-methylated (human) (UniProt O76039)"}, "[15]": {"target": "CRB3, G9a-methylated (human) (UniProt Q9BUF7)"}, "[16]": {"target": "CUTC, G9a-methylated (human) (UniProt Q9NTM9)", "sequence (Q9NTM9 whole entry)": "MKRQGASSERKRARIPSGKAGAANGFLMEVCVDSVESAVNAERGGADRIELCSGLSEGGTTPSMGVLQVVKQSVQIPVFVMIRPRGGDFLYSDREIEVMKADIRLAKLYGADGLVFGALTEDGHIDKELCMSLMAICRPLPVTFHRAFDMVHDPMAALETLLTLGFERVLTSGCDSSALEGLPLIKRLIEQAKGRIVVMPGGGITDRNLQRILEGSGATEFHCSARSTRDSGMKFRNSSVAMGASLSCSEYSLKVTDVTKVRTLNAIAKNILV"}, "[17]": {"target": "DGKA, G9a-methylated (human) (UniProt P23743)"}, "[18]": {"target": "DNTT, G9a-methylated (human) (UniProt P04053)"}, "[19]": {"target": "FTH1 (hit 104), G9a-methylated (human) (UniProt P02794)", "sequence (P02794 whole entry)": "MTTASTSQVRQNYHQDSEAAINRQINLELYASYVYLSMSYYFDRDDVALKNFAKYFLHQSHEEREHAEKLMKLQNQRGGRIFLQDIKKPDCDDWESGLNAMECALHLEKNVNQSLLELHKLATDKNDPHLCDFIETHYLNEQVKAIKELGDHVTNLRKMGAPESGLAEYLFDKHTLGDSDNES"}, "[20]": {"target": "FTL, G9a-methylated (human) (UniProt P02792)", "sequence (P02792 whole entry)": "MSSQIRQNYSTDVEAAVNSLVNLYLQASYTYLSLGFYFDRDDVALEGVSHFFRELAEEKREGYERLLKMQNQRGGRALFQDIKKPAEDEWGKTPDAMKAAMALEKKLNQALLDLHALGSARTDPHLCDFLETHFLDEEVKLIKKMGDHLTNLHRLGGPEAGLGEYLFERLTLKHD"}, "[21]": {"target": "GAL, G9a-methylated (human) (UniProt P22466)", "sequence (P22466 20-123 limits assumed)": "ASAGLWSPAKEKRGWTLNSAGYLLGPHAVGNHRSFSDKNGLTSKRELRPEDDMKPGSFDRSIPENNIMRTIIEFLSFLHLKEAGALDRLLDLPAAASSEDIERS"}, "[22]": {"target": "GFOD1, G9a-methylated (human) (UniProt Q9NXC2)", "sequence (Q9NXC2 22-390 limits assumed)": "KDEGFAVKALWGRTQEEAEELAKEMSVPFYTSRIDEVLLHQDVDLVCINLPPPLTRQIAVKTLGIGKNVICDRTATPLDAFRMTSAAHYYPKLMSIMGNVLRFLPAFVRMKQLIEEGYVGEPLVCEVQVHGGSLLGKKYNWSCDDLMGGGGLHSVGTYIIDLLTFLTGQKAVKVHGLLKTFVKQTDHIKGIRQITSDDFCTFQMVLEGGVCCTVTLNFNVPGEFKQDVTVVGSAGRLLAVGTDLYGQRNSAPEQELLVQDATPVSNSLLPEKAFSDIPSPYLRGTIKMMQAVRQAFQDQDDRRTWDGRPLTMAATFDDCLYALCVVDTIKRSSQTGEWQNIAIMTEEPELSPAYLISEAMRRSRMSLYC"}, "[23]": {"target": "GGPS1, G9a-methylated (human) (UniProt O95749)", "sequence (O95749 whole entry)": "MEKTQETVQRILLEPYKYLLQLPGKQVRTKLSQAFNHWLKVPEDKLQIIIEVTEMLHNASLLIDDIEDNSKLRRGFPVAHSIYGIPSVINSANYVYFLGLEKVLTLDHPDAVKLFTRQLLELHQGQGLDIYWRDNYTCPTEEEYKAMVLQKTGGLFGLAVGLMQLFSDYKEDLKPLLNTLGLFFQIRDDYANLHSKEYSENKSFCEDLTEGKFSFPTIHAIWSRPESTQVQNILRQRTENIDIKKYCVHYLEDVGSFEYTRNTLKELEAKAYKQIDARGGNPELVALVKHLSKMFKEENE"}, "[24]": {"target": "GNPTAB, G9a-methylated (human) (UniProt Q3T906)"}, "[25]": {"target": "GPR108, G9a-methylated (human) (UniProt Q9NPR9)", "sequence (Q9NPR9 33-543 limits assumed)": "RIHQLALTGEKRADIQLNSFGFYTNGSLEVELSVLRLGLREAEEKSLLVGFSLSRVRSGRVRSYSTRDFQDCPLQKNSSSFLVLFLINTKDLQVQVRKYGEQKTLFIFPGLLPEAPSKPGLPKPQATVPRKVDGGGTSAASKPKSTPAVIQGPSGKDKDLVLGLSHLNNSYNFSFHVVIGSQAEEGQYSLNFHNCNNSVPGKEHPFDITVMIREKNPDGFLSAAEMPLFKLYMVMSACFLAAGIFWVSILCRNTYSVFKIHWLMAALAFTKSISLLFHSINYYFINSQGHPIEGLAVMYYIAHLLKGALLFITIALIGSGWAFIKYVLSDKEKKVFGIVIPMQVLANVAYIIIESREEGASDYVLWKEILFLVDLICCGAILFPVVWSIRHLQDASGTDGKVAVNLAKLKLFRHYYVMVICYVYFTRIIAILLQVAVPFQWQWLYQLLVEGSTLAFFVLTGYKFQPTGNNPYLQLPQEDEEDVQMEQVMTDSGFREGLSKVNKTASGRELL"}, "[26]": {"target": "HIC2, G9a-methylated (human) (UniProt Q96JB3)"}, "[27]": {"target": "KIFC1, G9a-methylated (human) (UniProt Q9BW19)", "sequence (Q9BW19 whole entry)": "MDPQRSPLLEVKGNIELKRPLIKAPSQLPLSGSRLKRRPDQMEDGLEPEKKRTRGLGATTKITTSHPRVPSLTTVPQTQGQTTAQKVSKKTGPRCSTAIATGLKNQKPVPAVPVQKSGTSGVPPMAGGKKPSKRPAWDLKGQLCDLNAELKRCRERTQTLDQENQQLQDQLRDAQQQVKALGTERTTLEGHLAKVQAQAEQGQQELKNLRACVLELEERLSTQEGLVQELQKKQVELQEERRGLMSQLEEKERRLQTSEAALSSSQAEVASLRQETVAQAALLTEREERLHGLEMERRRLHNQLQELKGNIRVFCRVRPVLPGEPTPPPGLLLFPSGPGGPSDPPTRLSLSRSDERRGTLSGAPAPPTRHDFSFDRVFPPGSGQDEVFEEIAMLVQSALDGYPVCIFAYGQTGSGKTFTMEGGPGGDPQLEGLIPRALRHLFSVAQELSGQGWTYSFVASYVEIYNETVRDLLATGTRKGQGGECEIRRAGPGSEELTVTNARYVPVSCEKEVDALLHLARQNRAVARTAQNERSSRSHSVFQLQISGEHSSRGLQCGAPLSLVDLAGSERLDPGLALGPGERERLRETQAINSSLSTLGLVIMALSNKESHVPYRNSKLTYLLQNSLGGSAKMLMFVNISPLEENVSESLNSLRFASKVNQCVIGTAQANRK"}, "[28]": {"target": "LTC4S, G9a-methylated (human) (UniProt Q16873)"}, "[29]": {"target": "LYPLAL1, G9a-methylated (human) (UniProt Q5VWZ2)"}, "[30]": {"target": "MOBKL3, G9a-methylated (human) (UniProt Q9Y3A3)"}, "[31]": {"target": "PHF20L1, G9a-methylated (human) (UniProt A8MW92)", "sequence (A8MW92 other isoform, or with tags, fused parts or gaps limits assumed)": "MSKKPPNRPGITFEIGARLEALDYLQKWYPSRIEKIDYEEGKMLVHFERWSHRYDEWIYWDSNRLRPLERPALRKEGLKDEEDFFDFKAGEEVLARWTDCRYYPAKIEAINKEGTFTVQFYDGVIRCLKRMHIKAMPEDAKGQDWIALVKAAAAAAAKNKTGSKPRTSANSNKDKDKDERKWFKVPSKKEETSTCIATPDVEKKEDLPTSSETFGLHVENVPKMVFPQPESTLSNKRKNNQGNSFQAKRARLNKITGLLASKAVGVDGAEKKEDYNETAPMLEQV"}, "[32]": {"target": "PSMA8, G9a-methylated (human) (UniProt Q8TAA3)"}, "[33]": {"target": "RAB7B, G9a-methylated (human) (UniProt Q96AH8)"}, "[34]": {"target": "SCGB2A2, G9a-methylated (human) (UniProt Q13296)"}, "[35]": {"target": "SEC22B, G9a-methylated (human) (UniProt O75396)", "sequence (O75396 whole entry)": "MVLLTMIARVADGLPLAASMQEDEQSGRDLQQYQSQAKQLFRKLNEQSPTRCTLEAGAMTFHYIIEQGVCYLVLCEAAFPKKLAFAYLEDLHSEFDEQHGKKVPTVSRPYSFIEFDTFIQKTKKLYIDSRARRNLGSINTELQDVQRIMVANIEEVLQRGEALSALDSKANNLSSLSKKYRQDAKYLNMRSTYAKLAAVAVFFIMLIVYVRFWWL"}, "[36]": {"target": "SH3YL1 (clone MGC:12275), G9a-methylated (human) (UniProt Q96HL8)", "sequence (Q96HL8 whole entry)": "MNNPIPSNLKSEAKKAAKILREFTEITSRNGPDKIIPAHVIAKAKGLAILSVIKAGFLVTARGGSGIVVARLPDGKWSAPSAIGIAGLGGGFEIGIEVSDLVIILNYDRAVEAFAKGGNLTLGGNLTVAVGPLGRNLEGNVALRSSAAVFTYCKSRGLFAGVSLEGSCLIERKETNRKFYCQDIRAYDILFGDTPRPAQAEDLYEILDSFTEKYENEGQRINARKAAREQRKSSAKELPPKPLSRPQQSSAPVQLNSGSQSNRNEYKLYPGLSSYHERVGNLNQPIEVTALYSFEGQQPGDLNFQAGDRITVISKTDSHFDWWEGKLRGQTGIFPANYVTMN"}, "[37]": {"target": "SMYD3, G9a-methylated (human) (UniProt Q9H7B4)"}, "[38]": {"target": "SMYD5, G9a-methylated (human) (UniProt Q6GMV2)"}, "[39]": {"target": "TCTA, G9a-methylated (human) (UniProt P57738)"}, "[40]": {"target": "TEAD4, G9a-methylated (human) (UniProt Q15561)", "sequence (Q15561 130-434 limits assumed)": "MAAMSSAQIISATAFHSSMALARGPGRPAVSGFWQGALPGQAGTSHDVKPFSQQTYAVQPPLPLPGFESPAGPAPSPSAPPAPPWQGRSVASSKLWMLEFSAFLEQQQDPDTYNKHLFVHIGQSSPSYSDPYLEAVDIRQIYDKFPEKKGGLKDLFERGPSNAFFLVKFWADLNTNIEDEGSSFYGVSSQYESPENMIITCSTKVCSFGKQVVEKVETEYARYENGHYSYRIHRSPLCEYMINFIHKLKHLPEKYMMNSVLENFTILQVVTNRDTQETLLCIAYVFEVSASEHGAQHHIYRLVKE"}, "[41]": {"target": "TMEM97, G9a-methylated (human) (UniProt Q5BJF2)"}, "[42]": {"target": "UBE2S, G9a-methylated (human) (UniProt Q16763)"}, "[43]": {"target": "WDR45, G9a-methylated (human) (UniProt Q9Y484)"}, "[44]": {"target": "YPEL5, G9a-methylated (human) (UniProt P62699)", "sequence (P62699 whole entry)": "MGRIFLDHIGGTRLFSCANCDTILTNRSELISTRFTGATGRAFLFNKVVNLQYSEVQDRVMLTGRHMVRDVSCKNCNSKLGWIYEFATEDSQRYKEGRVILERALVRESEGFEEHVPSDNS"}, "[45]": {"target": "ZRANB1, G9a-methylated (human) (UniProt Q9UGI0)"}}}
{"substance": "3× Flag-3×MBT (designed binder)", "values": [{"measurement": "G9a Average SNR", "setting": "[1]", "result": 21.8}, {"measurement": "G9a Average SNR", "setting": "[2]", "result": 16.6}, {"measurement": "G9a Average SNR", "setting": "[3]", "result": 26.4}, {"measurement": "G9a Average SNR", "setting": "[4]", "result": 15.4}, {"measurement": "G9a Average SNR", "setting": "[5]", "result": 13.5}, {"measurement": "G9a Average SNR", "setting": "[6]", "result": 12.7}, {"measurement": "G9a Average SNR", "setting": "[7]", "result": 12.4}, {"measurement": "G9a Average SNR", "setting": "[8]", "result": 14.9}, {"measurement": "G9a Average SNR", "setting": "[9]", "result": 11.9}, {"measurement": "G9a Average SNR", "setting": "[10]", "result": 13}, {"measurement": "G9a Average SNR", "setting": "[11]", "result": 25.3}, {"measurement": "G9a Average SNR", "setting": "[12]", "result": 13.6}, {"measurement": "G9a Average SNR", "setting": "[13]", "result": 13.8}, {"measurement": "G9a Average SNR", "setting": "[14]", "result": 19.7}, {"measurement": "G9a Average SNR", "setting": "[15]", "result": 15.2}, {"measurement": "G9a Average SNR", "setting": "[16]", "result": 13.6}, {"measurement": "G9a Average SNR", "setting": "[17]", "result": 15.5}, {"measurement": "G9a Average SNR", "setting": "[18]", "result": 49.9}, {"measurement": "G9a Average SNR", "setting": "[19]", "result": 30.4}, {"measurement": "G9a Average SNR", "setting": "[20]", "result": 34.2}, {"measurement": "G9a Average SNR", "setting": "[21]", "result": 13.1}, {"measurement": "G9a Average SNR", "setting": "[22]", "result": 16.4}, {"measurement": "G9a Average SNR", "setting": "[23]", "result": 12.3}, {"measurement": "G9a Average SNR", "setting": "[24]", "result": 16.5}, {"measurement": "G9a Average SNR", "setting": "[25]", "result": 19.2}, {"measurement": "G9a Average SNR", "setting": "[26]", "result": 16.7}, {"measurement": "G9a Average SNR", "setting": "[27]", "result": 63.2}, {"measurement": "G9a Average SNR", "setting": "[28]", "result": 14.1}, {"measurement": "G9a Average SNR", "setting": "[29]", "result": 15.7}, {"measurement": "G9a Average SNR", "setting": "[30]", "result": 13.6}, {"measurement": "G9a Average SNR", "setting": "[31]", "result": 21.5}, {"measurement": "G9a Average SNR", "setting": "[32]", "result": 13.1}, {"measurement": "G9a Average SNR", "setting": "[33]", "result": 12.7}, {"measurement": "G9a Average SNR", "setting": "[34]", "result": 14.8}, {"measurement": "G9a Average SNR", "setting": "[35]", "result": 12.6}, {"measurement": "G9a Average SNR", "setting": "[36]", "result": 12.9}, {"measurement": "G9a Average SNR", "setting": "[37]", "result": 17.6}, {"measurement": "G9a Average SNR", "setting": "[38]", "result": 20.7}, {"measurement": "G9a Average SNR", "setting": "[39]", "result": 16.4}, {"measurement": "G9a Average SNR", "setting": "[40]", "result": 16.9}, {"measurement": "G9a Average SNR", "setting": "[41]", "result": 21.2}, {"measurement": "G9a Average SNR", "setting": "[42]", "result": 25}, {"measurement": "G9a Average SNR", "setting": "[43]", "result": 16.6}, {"measurement": "G9a Average SNR", "setting": "[44]", "result": 13.4}, {"measurement": "G9a Average SNR", "setting": "[45]", "result": 13.2}]}
